BRET signal left after Fsk/IBMX (percent of the unstimulated sensor) data for one substance are collected here from publication PMC5987717.

Test in all cases: FRET or BRET
In general terms: BRET reads energy transfer from a luciferase to a nearby fluorophore.

In assay [1] the target is hRIIα-RLuc8 (PKA regulatory subunit RIIα conjugated to mutant Renilla luciferase) (human) (UniProt P13861).
Assay [2] concerns the target hRIIβ-RLuc8 (PKA regulatory subunit RIIβ conjugated to mutant Renilla luciferase) (human) (UniProt P31323).
The target of assay [3] is hRIβ-Rluc8 (PKA regulatory subunit RIβ conjugated to mutant Renilla luciferase) (human) (UniProt P31321).
Sequence of hRIβ-Rluc8 (PKA regulatory subunit RIβ conjugated to mutant Renilla luciferase) (human) (P31321 whole entry, change not shown): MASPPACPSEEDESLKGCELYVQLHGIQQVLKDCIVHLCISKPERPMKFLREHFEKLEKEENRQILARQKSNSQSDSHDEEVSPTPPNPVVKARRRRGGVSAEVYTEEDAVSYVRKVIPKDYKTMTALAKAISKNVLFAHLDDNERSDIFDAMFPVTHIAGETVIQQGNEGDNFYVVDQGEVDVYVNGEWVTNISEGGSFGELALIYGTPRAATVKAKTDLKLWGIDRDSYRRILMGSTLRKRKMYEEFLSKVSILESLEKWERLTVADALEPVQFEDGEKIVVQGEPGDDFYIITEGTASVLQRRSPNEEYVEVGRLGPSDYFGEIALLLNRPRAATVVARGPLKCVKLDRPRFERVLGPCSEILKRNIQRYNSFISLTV

Sequence of hRIIβ-RLuc8 (PKA regulatory subunit RIIβ conjugated to mutant Renilla luciferase) (human) (P31323 whole entry, change not shown): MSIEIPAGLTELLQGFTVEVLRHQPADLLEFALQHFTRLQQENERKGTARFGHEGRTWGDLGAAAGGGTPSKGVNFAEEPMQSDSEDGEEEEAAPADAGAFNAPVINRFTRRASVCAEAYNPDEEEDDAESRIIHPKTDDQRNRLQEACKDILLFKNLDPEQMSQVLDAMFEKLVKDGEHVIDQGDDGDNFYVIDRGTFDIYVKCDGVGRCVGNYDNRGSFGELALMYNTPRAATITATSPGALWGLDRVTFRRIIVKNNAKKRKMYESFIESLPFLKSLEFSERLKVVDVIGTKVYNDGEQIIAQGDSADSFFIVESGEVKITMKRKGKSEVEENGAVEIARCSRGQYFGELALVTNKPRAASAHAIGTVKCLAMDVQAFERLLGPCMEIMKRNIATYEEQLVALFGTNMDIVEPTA
Sequence of hRIIα-RLuc8 (PKA regulatory subunit RIIα conjugated to mutant Renilla luciferase) (human) (P13861 whole entry, change not shown): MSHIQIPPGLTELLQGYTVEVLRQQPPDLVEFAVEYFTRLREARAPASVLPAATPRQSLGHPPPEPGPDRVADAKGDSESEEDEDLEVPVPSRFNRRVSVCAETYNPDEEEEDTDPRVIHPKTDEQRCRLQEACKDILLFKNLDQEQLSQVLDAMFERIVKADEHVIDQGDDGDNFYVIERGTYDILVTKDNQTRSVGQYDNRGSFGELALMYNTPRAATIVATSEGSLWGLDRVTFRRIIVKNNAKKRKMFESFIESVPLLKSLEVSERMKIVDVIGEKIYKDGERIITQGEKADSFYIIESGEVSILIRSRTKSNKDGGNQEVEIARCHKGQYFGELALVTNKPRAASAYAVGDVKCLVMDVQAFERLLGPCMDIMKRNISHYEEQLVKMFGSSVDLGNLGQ

On to “GFP-hCα (GFP-tagged PKA catalytic subunit Cα) (from UniProt P17612 1-351) (natural protein)”, for which the results for the BRET signal left after Fsk/IBMX (percent of the unstimulated sensor) in assay [1], in assay [2] and in assay [3] were 25%, 28% and 75%, respectively.
